One experiment addresses HLA-B*54:01. As to the kind of experiment: IEDB peptide-MHC binding, purified MHC/competitive/radioactivity; filed as Kd, often an IC50 or EC50 that approximates it; ≥ and ≤ were set here for values at or beyond the usual limits of such assays.
The target in a further experiment is HLA-B*35:01. Described as above.
Experiment [1] has as its target HLA-B*07:02. The experiment is described as above.
A further experiment has as its target HLA-B*53:01. The description is as above.
The target in the next experiment is HLA-B*51:01. The experiment is described as above.
Experiment [2] addresses HLA-B*07:02. As to the kind of experiment: IEDB peptide-MHC binding, purified MHC/direct/fluorescence; filed as Kd, often an IC50 or EC50 that approximates it; ≥ and ≤ were set here for values at or beyond the usual limits of such assays. The following applies: source organism: Mammarenavirus juninense.
Another experiment deals with HLA-C*03:03. The description is as above.
In experiment [3] the target is HLA-B*57:01. Nature of the experiment: IEDB peptide-MHC binding, purified MHC/competitive/radioactivity; filed as Kd, often an IC50 or EC50 that approximates it; ≥ and ≤ were set here for values at or beyond the usual limits of such assays.
Experiment [4] addresses HLA-B*58:01. The experiment is described as above.
For the next experiment, the target named is HLA-A*01:01. Nature of the experiment: IEDB peptide-MHC binding, purified MHC/competitive/fluorescence; filed as Kd, often an IC50 or EC50 that approximates it; ≥ and ≤ were set here for values at or beyond the usual limits of such assays. Conditions: source organism: Bacillus cereus G9241.
A further experiment concerns the target HLA-A*30:01. As to the kind of experiment: IEDB peptide-MHC binding, purified MHC/competitive/radioactivity; filed as Kd, often an IC50 or EC50 that approximates it; ≥ and ≤ were set here for values at or beyond the usual limits of such assays. Conditions: source organism: Dengue virus 4 Philippines/H241/1956.
The target in another experiment is HLA-B*46:01. As to the kind of experiment: IEDB peptide-MHC binding, purified MHC/competitive/fluorescence; filed as Kd, often an IC50 or EC50 that approximates it; ≥ and ≤ were set here for values at or beyond the usual limits of such assays. Conditions: source organism: Giardia lamblia ATCC 50803.
In another experiment the target is HLA-B*15:17. Nature of the experiment: IEDB peptide-MHC binding, purified MHC/direct/fluorescence; filed as Kd, often an IC50 or EC50 that approximates it; ≥ and ≤ were set here for values at or beyond the usual limits of such assays. Conditions: source organism: Giardia lamblia ATCC 50803.
Experiment [5] has as its target HLA-B*57:01. The description is as above. The following applies: source organism: Giardia lamblia ATCC 50803.
The target in a further experiment is HLA-C*12:03. Described as above. Conditions: source organism: Giardia lamblia ATCC 50803.
In experiment [6] the target is HLA-B*58:01. The description is as above. Conditions: source organism: Giardia lamblia ATCC 50803.
Another experiment has as its target HLA-A*68:02. Nature of the experiment: IEDB peptide-MHC binding, purified MHC/competitive/radioactivity; filed as Kd, often an IC50 or EC50 that approximates it; ≥ and ≤ were set here for values at or beyond the usual limits of such assays.
Another experiment has as its target HLA-A*02:02. Described as above. Conditions: source organism: Vaccinia virus WR.
The target of another experiment is HLA-A*11:01. The experiment is described as above. Conditions: source organism: Vaccinia virus WR.
For the next experiment, the target named is HLA-A*68:01. The description is as above. Conditions: source organism: Vaccinia virus WR.
The target of a further experiment is HLA-A*31:01. Described as above. The following applies: source organism: Vaccinia virus WR.
A further experiment has as its target HLA-A*03:01. The experiment is described as above. The following applies: source organism: Vaccinia virus WR.
A further experiment concerns the target HLA-A*33:01. The description is as above. Conditions: source organism: Vaccinia virus WR.
Another experiment deals with HLA-A*02:03. The description is as above. The following applies: source organism: Vaccinia virus WR.
A further experiment has as its target HLA-A*02:06. The description is as above. The following applies: source organism: Vaccinia virus WR.
Experiment [7] has as its target HLA-A*02:01. The description is as above. The following applies: source organism: Vaccinia virus WR.
Experiment [8] has as its target HLA-A*02:01. Nature of the experiment: IEDB peptide-MHC binding, purified MHC/competitive/fluorescence; filed as Kd, often an IC50 or EC50 that approximates it; ≥ and ≤ were set here for values at or beyond the usual limits of such assays. The following applies: source organism: Vaccinia virus Copenhagen.
The next experiment deals with HLA-C*05:01. As to the kind of experiment: IEDB peptide-MHC binding, purified MHC/direct/fluorescence; filed as Kd, often an IC50 or EC50 that approximates it; ≥ and ≤ were set here for values at or beyond the usual limits of such assays. The following applies: source organism: Vaccinia virus Copenhagen.
[9] abbreviates: source organism: SARS coronavirus Tor2.
The mark [10] stands for this setting: source organism: Dengue virus 3 Martinique/1243/1999.
Where [11] appears, read: source organism: Dengue virus 4 Philippines/H241/1956.
[12] abbreviates: source organism: Dengue virus 2 Jamaica/1409/1983.
The mark [13] stands for this setting: source organism: Vaccinia virus WR.
[14] abbreviates: source organism: Dengue virus 1 Brazil/97-11/1997.

Consider RPIFEWIEA, for which the Kd with HLA-B*54:01 (setting [9]) turned out to be 0.1 µM; with HLA-B*35:01 (setting [9]), 0.296 µM; with HLA-B*07:02 [1] (setting [9]), 0.378 µM; in the experiment with HLA-B*53:01 (setting [9]) it was 0.234 µM; in the experiment with HLA-B*51:01 (setting [9]) it was 0.416 µM.
On to AAVKAGASI, for which the Kd with HLA-B*07:02 [2] was 2.06 µM; with HLA-C*03:03 (source organism: Mammarenavirus machupoense), not above 0.001 µM.
As for VASVNMVSRL, the Kd in the experiment with HLA-B*57:01 [3] (setting [10]) turned out to be 2.24 µM; with HLA-B*58:01 [4] (setting [10]), 1.05 µM.
For ITDITKYLY, in the experiment with HLA-A*01:01, the equilibrium dissociation constant (Kd) worked out at 0.0021 µM.
With GASKRSWPLN, the dissociation constant Kd in the experiment with HLA-B*57:01 [3] (setting [11]) was 0.106 µM; with HLA-A*30:01, 0.257 µM; with HLA-B*58:01 [4] (setting [11]), 0.763 µM.
As for IASPILFPF, the Kd with HLA-B*46:01 is 0.0923 µM; in the experiment with HLA-B*15:17 it was 0.0015 µM; in the experiment with HLA-B*57:01 [5], 0.0148 µM; in the experiment with HLA-C*12:03 it was 0.594 µM; with HLA-B*58:01 [6], 0.003 µM; with HLA-C*03:03 (source organism: Giardia lamblia ATCC 50803), 0.003 µM.
For STSTWVTYGT, the Kd was 0.13 µM with HLA-B*57:01 [3] (setting [12]), 1.12 µM in the experiment with HLA-B*58:01 [4] (setting [12]) and 0.0728 µM in the experiment with HLA-A*68:02 (setting [12]).
As for VLPHLCLDYK, the Kd with HLA-A*02:02 was not below 70 µM; with HLA-B*54:01 (setting [13]), not below 69.9 µM; with HLA-A*11:01 it was 0.194 µM; in the experiment with HLA-B*35:01 (setting [13]), not below 69.9 µM; with HLA-A*68:01, 1.32 µM; with HLA-B*07:02 [1] (setting [13]) it was not below 69.6 µM. For the same sequence, the Kd in the experiment with HLA-B*53:01 (setting [13]) was not below 69.9 µM; with HLA-B*51:01 (setting [13]), not below 69.6 µM; with HLA-A*31:01, 1.76 µM; in the experiment with HLA-A*03:01, 0.0261 µM; with HLA-A*33:01, 19.3 µM; in the experiment with HLA-A*02:03, not below 70.4 µM. Besides, the figures for the Kd with HLA-A*02:06, with HLA-A*68:02 (setting [13]) and in the experiment with HLA-A*02:01 [7] were not below 20.2 µM, not below 69.8 µM and not below 69.4 µM, respectively.
Regarding YLDYDTIYV, the equilibrium dissociation constant (Kd) was 0.0004 µM with HLA-A*02:01 [8] and not above 0.001 µM with HLA-C*05:01.
In the case of LPFYETLPEL, the Kd in the experiment with HLA-B*54:01 (setting [13]) turned out to be 0.0297 µM; with HLA-B*35:01 (setting [13]) it was 0.0631 µM; in the experiment with HLA-B*07:02 [1] (setting [13]) it was 0.0798 µM; with HLA-B*53:01 (setting [13]), 0.057 µM; with HLA-B*51:01 (setting [13]), 0.0551 µM.
As for VASVELPNSL, the Kd turned out to be 4.53 µM in the experiment with HLA-B*57:01 [3] (setting [14]) and 0.149 µM in the experiment with HLA-B*58:01 [4] (setting [14]).

Usually Kd stands for the equilibrium constant for the complex coming apart.

Values taken from the Immune Epitope Database (IEDB).
